Test results: publication PMC6447637

How the values were obtained:
[1] = target: NaV1.5 CTerm Long (not stated (human or rat cDNA cloned)); test: ITC; Ca2+-saturating: CTerm (2–25 µM) in the sample cell, CaM, CaM12 or CaM34 (30–1000 µM) as titrant; 20 mM MOPS, 150 mM NaCl, 1 mM MgCl2, 50 µM EGTA with 1 mM CaCl2; VP-ITC, single binding site fit, one replicate
[2] = target: NaV1.4 CTerm Long (residues 1599–1764), freed of CaM for ITC (human) (UniProt P35499); test: as above
[3] = target: NaV1.4 CTerm Short (residues 1599–1754), freed of CaM for ITC (human) (UniProt P35499); test: as above
[4] = target: NaV1.5 CTerm Long (not stated (human or rat cDNA cloned)); test: ITC; Ca2+-free: CTerm (2–25 µM) in the sample cell, CaM (30–1000 µM) as titrant; 20 mM MOPS, 150 mM NaCl, 1 mM MgCl2, 50 µM EGTA; VP-ITC, single binding site fit, one replicate
[5] = target: NaV1.5 CTerm Long (not stated (human or rat cDNA cloned)); test: ITC; Ca2+-saturating: CTerm (2–25 µM) in the sample cell, CaM, CaM12 or CaM34 (30–1000 µM) as titrant; 20 mM MOPS, 150 mM NaCl, 1 mM MgCl2, 50 µM EGTA with 1 mM CaCl2; VP-ITC, single binding site fit, one replicate; remark: listed apart in the source

Substance | Kd [1] | Kd [2] | Kd [3] | Kd [4] | Kd [5]
CaM12 (D20A, D56A; N lobe Ca^2+ binding disabled) (natural protein) | 3.6 µM | 0.154 µM | 0.156 µM |  | 
CaM34 (D93A, D129A; C lobe Ca^2+ binding disabled) (natural protein) | 0.09 µM | 0.121 µM | 0.282 µM |  | 
calmodulin (full-length mammalian calmodulin, R. norvegicus CALM2) (from UniProt P0DP30 1-149) (natural protein) | 0.089 µM |  |  | 0.048 µM | 0.07 µM
